Reference: patent US20140017790A1, “CONTROL AGENT FOR CONTROLLING UNDIFFERENTIATED STATE AND USE THEREOF” (RIKEN, priority 2011, published 2014)

How the values were obtained:
Type in all cases: cell-based
ERK1/2 = test: Western blotting, phosphorylation of ERK1/2 in mouse iPS cells; conditions: CCL2 overexpressed, relative to negative control
Procedure: The mouse iPS cells transfected with the Ccl2 expression vector were cultured for 24 hours in the same manner as in Example 1. After the culture, the mouse iPS cells were washed with PBS, and then were suspended in 100 μl of a mammalian m-PER lysis buffer. The suspension was passed through a 26-gauge needle for 10 minutes to homogenize the cells. Then, the suspension was centrifuged at 13,000 rpm and 4° C. for 5 minutes, and the supernatant was collected. The protein concentration in the supernatant was measured using a Pierce (registered trademark) BCA Protein assay (trade name, Thermo Scientific). Next, the supernatant was subjected to Western blotting to detect a target protein. Specifically, first, the supernatant (total protein: 10 μg) was applied to a Novex Gel electrophoresis system with 4%-12% Bis-Tris gels, and was blotted on a nitrocellulose membrane. Then, the membrane was incubated with a primary antibody against the target protein. After washing the membrane, the membrane was incubated with a labeled secondary antibody labeled with horseradish peroxidase, and a color-developing reaction was caused using a coloring reagent (trade name: ECL plus, GE Healthcare). Then, luminescence on the membrane was detected using a Fuji LAS-3000 luminescent image analyzer. […]

AKT = test: Western blotting, phosphorylation of AKT in human iPS cells; conditions: feeder conditions, 6 days, versus negative control (bFGF)
Procedure: With respect to the supernatant prepared in the above item (1), the target protein detection was carried out in the same manner as in Example 4. Furthermore, as a negative control, the target protein detection was carried out in the same manner, except that bFGF was added instead of the CCL2.
(§1) Then, the ratio of the phosphorylated AKT to the non-phosphorylated AKT (p-AKT/AKT) was determined. Assuming that the value of the p-AKT/AKT in the negative control was “1”, the relative value was calculated. Also, the ratio of the KLF4 gene expression to the GAPDH gene expression (KLF4/GAPDH) was determined. Assuming that KLF4/GAPDH in the negative control was “1”, the relative value was calculated.

KLF4 = test: KLF4/GAPDH ratio in human iPS cells; conditions: feeder conditions, 6 days, negative control (bFGF) = 1
Procedure: as §1
Also, the ratio of KLF4 to GAPDH (KLF4/GAPDH) was determined. Assuming that KLF4/GAPDH in the negative control was “1”, the relative value was calculated. FIG. 15D is a graph showing the relative value of the ratio of KLF4 to GAPDH (KLF4/GAPDH).

mouse iPS cells = test: flow cytometry analysis of Nanog-GFP positive cell population
Procedure: In the present example, the above-described DMEM to which the LIF and mouse recombinant CCL2 (MCP-1, #479-JE-010, R&D Systems) had been added was used. In the medium, the final concentration of the LIF was set to 25 units/ml, and the concentration of the recombinant CCL2 was set to 500 ng/ml. The amount of the medium to be added to a 12-well dish was set to 1 ml per well. On the other hand, in a comparative example, the above-described DMEM containing the LIF but not containing the CCL2 was used. The final concentration of the LIF was set to 25 units/ml.
The mouse iPS cells cultured under feeder free conditions were cultured in the medium of the example and the medium of the comparative example, respectively. The mouse iPS cells were seeded in the 12-well dish at a density of 6×10^4 cells/well.
The flow cytometry analysis was carried out in the following manner. After the mouse iPS cells had been cultured in the above described manner, the cells were collected from the wells, and were suspended again in an ES medium containing 25 units/ml of LIF. As the ES medium, a DMEM (containing glucose at a high concentration and containing no sodium pyruvate) containing 15% FBS, 0.1 mmol/l NEAA, and 0.1 mmol/l 2-Mercaptoethanol was used. Then, this cell suspension was applied to a flow cytometer (trade name: BD FACSAria (registered trademark) II, Becton, Dickinson and Company), and analyzed in accordance with the protocol of the flow cytometer. At this time, as a cell population having pluripotency, i.e., undifferentiated cell population, a Nanog-GFP-positive region sorted out based on FITC-A>10^4 was monitored. The raw data was analyzed by a program (FlowJo, ver. 7), and plotted in the form of density plot. The iPS cells were produced from MEF of a modified mouse with a GFP protein being incorporated in the promoter region of the Nanog gene. Thus, when the cells expressed the Nanog gene, it means the cells were Nanog-GFP positive, so that the GFP was produced and this GFP was detected by the FACS. […]

B1: CCL2: mouse recombinant CCL2 (MCP-1, #479-JE-010, R&D Systems); in Examples 1, 3, 4(1), 5 mouse CCL2 (SEQ ID NO: 3) overexpressed from Ccl2 expression vector (protein, listed as Mus musculus)
chain: MQVPVMLLGLLFTVAGWSIHVLAQPDAVNAPLTCCYSFTSKMIPMSRLESYKRITSSRCPKEAVVFVTKLKREVCADPKKEWVQTYIKNLDRNQMRSEPTTLFKTASALRSSAPLNVKLTRKSEANASTTFSTTTSSTSVGVTSVTVN
- phosphorylation of ERK1/2 (pERK1/2/ERK1/2) (ERK1/2): not promoted
- phosphorylation of AKT (pAKT/AKT) (AKT): not promoted
- KLF4 expression (KLF4/GAPDH), relative value (KLF4): about 1.7 fold
- proportion of the Nanog-GFP positive mouse iPS cells (mouse iPS cells; CCL2 500 ng/ml, LIF 25, 50, 100, 500 and 1000 units/ml, versus no CCL2): increased
- proportion of the Nanog-GFP positive mouse iPS cells (mouse iPS cells; recombinant CCL2 500 ng/ml + LIF 25 units/ml, feeder free, 24 hours, comparative medium (LIF only) 37.6%): 67.3%
- number of undifferentiated cells having pluripotency (Nanog-GFP positive) (mouse iPS cells; recombinant CCL2 500 ng/ml added to PI3K inhibitor 5 ng/ml + LIF 25 units/ml): further increase
